Experimental data reported in US11180762B2, “Methods and compositions for the treatment of cancer” (CHILDREN'S MEDICAL CENTER CORPORATION, priority 2014, dated 2021).
“Also recorded” adds a separate entry of the source.

Legend:
[1] = Serum stability, serum species not stated; assay type: in vitro ADME; conditions: 2'-fluoropyrimidine AsiC
[2] = test system: co-cultures of GFP− TNBC cells and GFP+ BPE cells; assay: Co-culture of tumor cells with GFP+ BPE cells, relative survival by flow cytometry; assay type: cell-based, human
Procedure: To determine whether EpCAM-AsiCs specifically target EpCAM+ cells when mixed with EpCAM^dim non-transformed epithelial cells, we incubated co-cultures of GFP− TNBC cells and GFP+ BPE cells with PLK1 EpCAM-AsiCs or medium and used GFP fluorescence to measure their relative survival by flow cytometry 3 days later (FIG. 2D, 2E). […] Thus PLK1 EpCAM-AsiCs are selectively cytotoxic for EpCAM+ tumor cells when mixed with normal cells.
To understand whether EpCAM-AsiC can specifically target basal A and luminal breast cancer cells and inhibit proliferation we designed an EpCAM-AsiC targeting PLK1. PLK1 is a known trigger for […] transition. The effect of EpCAM-AsiC targeting PLK1 on cell proliferation was tested on 10 breast cancer cells representative of basal A, B and luminal cell lines. […] A correlation was seen between EpCAM expression levels and cell viability (FIG. 27B). To understand if EpCAM-AsiC will specifically target EpCAM+ cells in a mix cell population HCC1937 (EpCAM+GFP−) cell were co-cultured with BPE (EpCAM-GFP+) cells and treated with EpCAM-AsiC targeting PLK1 or untreated. […] The co-culture was repeated with other basal A cell lines (MB468 and HCC1143) similar reults were obtained. When BPE cells were grown in a co-culture with basal B cell (MB231) the ratio between BPE and MB231 cells stayed the same regardless of the EpCAM-AsiC treatment (66% BPE and 33% MB231 in untreated co-culture and 61% BPE and 38% MB231 following EpCAM-AsiC treatment) (FIG. 27C, 27D).

[3] = test system: eGFP expression in BPLER and BPE cells; assay: eGFP knockdown in GFP-expressing BPLER and BPE cells; assay type: cell-based, human; conditions: AsiC 4 μM without lipid; siRNA 100 nM with Dharmafect; 72 hours
Procedure: FIG. 21A depicts the design of EpCAM-AsiC, containing an EpCAM aptamer and a PLK1 siRNA (sense strand disclosed as SEQ ID NO: 1 and antisense strand disclosed as SEQ ID NO: 2). […] EpCAM-AsiC targeting GFP was Alexa647 or Cy3 labeled at the 3′ end of the antisense siRNA strand and incubated with BPLER and BPE cells. Uptake was assessed 24 hours later by flow cytometry (FIG. 21C). Data are representative of 3 independent experiments. Cy3 and Alexa647-labeled EpCAM-AsiC was taken up by MB468 and BPLER (EpCAM+ cells) respectively and not by BPE (EpCAM−). MFI of each peak is shown (mock, gray). FIG. 21D depicts graphs of experiments in which, to test for gene silencing, BPLER and BPE were treated with EpCAM-AsiC targeting GFP (4 μM) and compared to Transfection controls using Dharmafect and GFP-siRNA (100 nM). Knockdown was assessed by flow cytometry 72 hours after incubation. Controls were mock and Dhrmafect only treatment (lipid). (n=4).
For uptake and silencing treatment, cells were plated at low density (10,000 cells/well in 96-well plates) and treated immediately. All AsiC and siRNA treatments were performed in either OptiMEM or WIT medium. Cell viability was assessed by CellTiter-Glo (Promega) or by Trypan-Blue staining in 96-well plates.
Cells were transfected with Dharmafect I per the manufacturer's protocol. See FIG. 9 for all siRNA sequences.

MB468-luc tumors = assay: Tumor inhibition, EpCAM+ MB468-luc xenograft; assay type: in vivo, nude mice; conditions: for growth of EpCAM+ MB468 tumors: 5 mg/kg sc every 3 d (72 h) for 2 wks
Procedure: For tumor inhibition studies, MB468-luc (5×10^6) and MB231-luc-mCherry (5×10^5) cells trypsinized with Tryple Express (Invitrogen), resuspended in a 1:1 WIT-Matrigel solution and injected subcutaneously in the flank of 8-week old female Nu/J mice (Stock #002019, Jackson Laboratories). Tumors size was analyzed daily using the IVIS Spectra, after 5 days tumors were clearly visible. […] Mice were treated every 72 h for 14 days.

[4] = test system: human breast tumor and normal breast tissue biopsies; assay: Uptake in human breast tumor and normal tissue biopsy explants; assay type: cell-based; conditions: 2 μM; 24 h; flow cytometry of single cell suspensions
From the text: It was next examined whether EpCAM-AsiCs concentrate in human breast tumors relative to normal breast samples within intact tissues. Paired normal tissue and breast tumor biopsies from 3 breast cancer patients were cut into cubes with −3 mm edges and placed in Petri dishes. The tumor sample cells were all EpCAM^bright and the normal tissue cells were EpCAM^dim (FIG. 3A). Fluorescently labeled Alexa647-siRNAs (not expected to be taken up by either normal tissue or tumor), Alexa647-cholesterol-conjugated siRNAs (chol-siRNAs, expected to be taken up by both), or Cy3-EpCAM-AsiCs were added to the culture medium and the tissues were incubated for 24 hr before harvest. The Cy3 signal of the AsiC, which could be visualized by the naked eye, concentrated only in the tumor specimens and was not detected in normal tissue (FIG. 3B). To quantify RNA uptake, flow cytometry analysis was performed on washed single cell suspensions of the tissue specimens (representative tumor-normal tissue pair (FIG. 3C), mean±SD of triplicate biospies from 3 EpCAM^bright paired breast tumor-normal tissue samples (FIG. 3D)). […] Thus, within intact tissue, EpCAM-AsiCs are selectively delivered to EpCAM^bright tumors relative to normal tissue. […]

[5] = test system: CD44+CD24low/− and ALDH+ cells; assay: Proportion of cells with T-IC phenotype; assay type: cell-based, human; conditions: basal-A and luminal lines; listed as PLK1 EpCAM-AsiCs
MCF10CA1a (CA1a) tumor = assay: MCF10CA1a tumor growth, AsiC injected sc near the tumor; assay type: in vivo, mice; conditions: luminescent photon flux, N=4
Procedure: The top panel depicts the experimental scheme. In this experiment the AsiCs were injected sc in the flank near the tumor, but not into the tumor. The bottom panel depicts a graph of Log2 total luminescent photon flux of the tumors (N=4); *, P<0.05 by Student's t-test.

Molecule	serum T1/2 [1]	decrease of the proportion of surviving tumor cells ([2]; BPE mixed with epithelial TNBC lines, after 3 d)	eGFP knockdown, BPLER vs BPE [3]	injections until complete tumor regression (MB468-luc tumors; very aggressive TNBC xenograft model)	uptake by breast tumor vs normal tissue [4]	proportion of surviving EpCAM+ basal-A tumor cells ([2]; 3 days)	survival of an EpCAM− basal-B cell line in co-culture ([2]; 3 days)	share of EpCAM− (BPE) cells in co-culture after treatment ([2]; HCC1937 + BPE, untreated 41% BPE)	share of EpCAM+ (HCC1937) cells in co-culture after treatment ([2]; HCC1937 + BPE, untreated 59% HCC1937)	share of MB231 cells in co-culture after treatment ([2]; MB231 + BPE, untreated 33% MB231)	share of BPE cells in co-culture after treatment ([2]; MB231 + BPE, untreated 66% BPE)	time at which tumors completely disappeared in many mice (MB468-luc tumors; 5 mg/Kg every 72 h)	time of first tumor shrinkage (MB468-luc tumors; 5 mg/Kg every 72 h)	growth of EpCAM+ MB468 tumors (MB468-luc tumors)	growth of EpCAM+ MB468 tumors (MB468-luc tumors; listed as PLK1-targeting AsiCs)	growth of EpCAM+ MB468 tumors (MB468-luc tumors; listed as PLK1 EpCAM-AsiCs)	proportion of cells with T-IC phenotype [5]	MCF10CA1a tumor growth (MCF10CA1a (CA1a) tumor)
EpCAM-AsiC: EpCAM aptamer-siRNA chimera, siRNA cargo not specified at the place; 2'-fluoropyrimidines, 3'-dTdT (nucleic acid, DNA at T, 2'-fluoro at CU, RNA at AG, backbone not given here; further chemistry not fully specified, EpCAM aptamer-siRNA chimera, siRNA cargo not specified at the place; 2'-fluoropyrimidines, 3'-dTdT) sense: GCGACUGGUUACCCGGUCGUUUUGAAGAAGAUCACCCUCCUUATT antisense: UAAGGAGGGUGAUCUUCUUCATT	> 72 h	7 fold	uniform and selective for EpCAM+ cells	3 injections	concentrated only in the tumors	–	–	–	–	–	–	–	–	–	–	–	–	–
PLK1 EpCAM-AsiC: EpCAM aptamer linked by U-U-U to PLK1 siRNA sense strand (SEQ ID NO: 1), annealed to antisense strand (SEQ ID NO: 2) (nucleic acid, DNA at T, 2'-fluoro at CU, RNA at AG, backbone not given here; EpCAM aptamer fused to sense strand) sense: GCGACUGGUUACCCGGUCGUUUUGAAGAAGAUCACCCUCCUUATT antisense: UAAGGAGGGUGAUCUUCUUCATT	–	–	–	–	–	greatly reduced the proportion of surviving EpCAM+ basal-A tumor cells	had no effect on survival of an EpCAM− basal-B cell line	83%	17%	38%	61%	14 days	6 days	regress only after treatment with PLK1 EpCAM-AsiC	rapidly completely regressed	caused complete tumor regression of EpCAM+ TNBC xenografts	reduced the proportion of cells with the phenotype of T-ICs; also recorded: reduced CD44+CD24low and Aldefluor+ cells	suppresses MCF10CA1a (CA1a) tumor growth
